First the molecules themselves.
B1: PEX5 peptide 240-255 (Peroxisomal targeting signal 1 receptor), 16-mer library wild type / PEX14 Pex14 (PEX14 PEX14, residues 16-84) (parent complex)
chain 1: AEQWAAEFIQQQGTSD
chain 2: TPGSENVLPREPLIATAVKFLQNSRVRQSPLATRRAFLKKKGLTDEEIDMAFQQSGTAADEPSSLGPAT

In this assay the parent is B1. Kind of assay: proteomic peptide phage display deep mutational scan (ProP-PD DMS): M13 P8 16-mer library selected against immobilised GST-tagged bait for four days (rounds), NGS of the eluted pools per day and pseudo-replica; bait immobilised on MaxiSorp plates (10 µg), library pre-cleared on GST, 2 h binding at 4 °C, five washes; one round per day, days 1-4; value from days 2 and 3.
Take chain 1 AEQWAAKFIQQQGTSD [chain 1 E7K]: the screen value was 0.000488 average fractional NGS count over selection days 2 and 3 (reads of this peptide / all reads for the bait, averaged over ….

For the variant chain 1 AEQWAADFIQQQGTSD [chain 1 E7D], the screen value is 0.00269 average fractional NGS count over selection days 2 and 3 (reads of this peptide / all reads for the bait, averaged over ….

As for chain 1 AEQWAAIFIQQQGTSD [chain 1 E7I], the screen value was 0.000858 average fractional NGS count over selection days 2 and 3 (reads of this peptide / all reads for the bait, averaged over ….

Regarding chain 1 AEQWAAQFIQQQGTSD [chain 1 E7Q], the screen value was 0.00112 average fractional NGS count over selection days 2 and 3 (reads of this peptide / all reads for the bait, averaged over ….

As to chain 1 AEQWAATFIQQQGTSD [chain 1 E7T], the screen value was 0.0012 average fractional NGS count over selection days 2 and 3 (reads of this peptide / all reads for the bait, averaged over ….

For chain 1 AEQWAALFIQQQGTSD [chain 1 E7L], the screen value was 0.0199 average fractional NGS count over selection days 2 and 3 (reads of this peptide / all reads for the bait, averaged over ….

Consider chain 1 AEQWAAWFIQQQGTSD [chain 1 E7W], for which the screen value was 0.00666 average fractional NGS count over selection days 2 and 3 (reads of this peptide / all reads for the bait, averaged over ….

On to chain 1 AEQWKAEFIQQQGTSD [chain 1 A5K], for which the screen value was 0.00108 average fractional NGS count over selection days 2 and 3 (reads of this peptide / all reads for the bait, averaged over ….

chain 1 AEQWHAEFIQQQGTSD [chain 1 A5H]: the screen value was 0.0461 average fractional NGS count over selection days 2 and 3 (reads of this peptide / all reads for the bait, averaged over ….

For the variant chain 1 AEQWSAEFIQQQGTSD [chain 1 A5S], the screen value is 0.00197 average fractional NGS count over selection days 2 and 3 (reads of this peptide / all reads for the bait, averaged over ….

On to chain 1 AEQWRAEFIQQQGTSD [chain 1 A5R], for which the screen value is 0.00499 average fractional NGS count over selection days 2 and 3 (reads of this peptide / all reads for the bait, averaged over ….

In the case of chain 1 AEQWMAEFIQQQGTSD [chain 1 A5M], the screen value was 0.00306 average fractional NGS count over selection days 2 and 3 (reads of this peptide / all reads for the bait, averaged over ….

For chain 1 AEQWDAEFIQQQGTSD [chain 1 A5D], the screen value was 0.00199 average fractional NGS count over selection days 2 and 3 (reads of this peptide / all reads for the bait, averaged over ….

On to chain 1 AEQWLAEFIQQQGTSD [chain 1 A5L], for which the screen value was 0.00177 average fractional NGS count over selection days 2 and 3 (reads of this peptide / all reads for the bait, averaged over ….

For chain 1 AEQWEAEFIQQQGTSD [chain 1 A5E], the screen value was 0.0005 average fractional NGS count over selection days 2 and 3 (reads of this peptide / all reads for the bait, averaged over ….

As for chain 1 AEQWNAEFIQQQGTSD [chain 1 A5N], the screen value is 0.00753 average fractional NGS count over selection days 2 and 3 (reads of this peptide / all reads for the bait, averaged over ….

In the case of chain 1 AEQWAAEWIQQQGTSD [chain 1 F8W], the screen value was 0.00184 average fractional NGS count over selection days 2 and 3 (reads of this peptide / all reads for the bait, averaged over ….

chain 1 AEQWAAEYIQQQGTSD [chain 1 F8Y]: the screen value was 0.000429 average fractional NGS count over selection days 2 and 3 (reads of this peptide / all reads for the bait, averaged over ….

As for chain 1 AEQWAAEMIQQQGTSD [chain 1 F8M], the screen value was 0.00109 average fractional NGS count over selection days 2 and 3 (reads of this peptide / all reads for the bait, averaged over ….

As for chain 1 WEQWAAEFIQQQGTSD [chain 1 A1W], the screen value is 0.00504 average fractional NGS count over selection days 2 and 3 (reads of this peptide / all reads for the bait, averaged over ….

As to chain 1 KEQWAAEFIQQQGTSD [chain 1 A1K], the screen value was 0.000873 average fractional NGS count over selection days 2 and 3 (reads of this peptide / all reads for the bait, averaged over ….

For the variant chain 1 PEQWAAEFIQQQGTSD [chain 1 A1P], the screen value was 0.000938 average fractional NGS count over selection days 2 and 3 (reads of this peptide / all reads for the bait, averaged over ….

chain 1 IEQWAAEFIQQQGTSD [chain 1 A1I]: the screen value was 0.000927 average fractional NGS count over selection days 2 and 3 (reads of this peptide / all reads for the bait, averaged over ….

With chain 1 EEQWAAEFIQQQGTSD [chain 1 A1E], the screen value was 0.000945 average fractional NGS count over selection days 2 and 3 (reads of this peptide / all reads for the bait, averaged over ….

On to chain 1 QEQWAAEFIQQQGTSD [chain 1 A1Q], for which the screen value was 0.00549 average fractional NGS count over selection days 2 and 3 (reads of this peptide / all reads for the bait, averaged over ….

In the case of chain 1 HEQWAAEFIQQQGTSD [chain 1 A1H], the screen value was 0.0701 average fractional NGS count over selection days 2 and 3 (reads of this peptide / all reads for the bait, averaged over ….

chain 1 AEPWAAEFIQQQGTSD [chain 1 Q3P]: the screen value was 0.00138 average fractional NGS count over selection days 2 and 3 (reads of this peptide / all reads for the bait, averaged over ….

Take chain 1 AEHWAAEFIQQQGTSD [chain 1 Q3H]: the screen value is 0.00576 average fractional NGS count over selection days 2 and 3 (reads of this peptide / all reads for the bait, averaged over ….

For the variant chain 1 AEVWAAEFIQQQGTSD [chain 1 Q3V], the screen value is 0.000961 average fractional NGS count over selection days 2 and 3 (reads of this peptide / all reads for the bait, averaged over ….

Consider chain 1 AEMWAAEFIQQQGTSD [chain 1 Q3M], for which the screen value was 0.002 average fractional NGS count over selection days 2 and 3 (reads of this peptide / all reads for the bait, averaged over ….

Turning to chain 1 AERWAAEFIQQQGTSD [chain 1 Q3R], the screen value was 0.000498 average fractional NGS count over selection days 2 and 3 (reads of this peptide / all reads for the bait, averaged over ….

Regarding chain 1 AEWWAAEFIQQQGTSD [chain 1 Q3W], the screen value was 0.00112 average fractional NGS count over selection days 2 and 3 (reads of this peptide / all reads for the bait, averaged over ….

chain 1 AENWAAEFIQQQGTSD [chain 1 Q3N]: the screen value is 0.00292 average fractional NGS count over selection days 2 and 3 (reads of this peptide / all reads for the bait, averaged over ….

Turning to chain 1 AEQWAGEFIQQQGTSD [chain 1 A6G], the screen value was 0.00471 average fractional NGS count over selection days 2 and 3 (reads of this peptide / all reads for the bait, averaged over ….

Turning to chain 1 AEQWAYEFIQQQGTSD [chain 1 A6Y], the screen value is 0.00438 average fractional NGS count over selection days 2 and 3 (reads of this peptide / all reads for the bait, averaged over ….

On to chain 1 AEQWAFEFIQQQGTSD [chain 1 A6F], for which the screen value is 0.00131 average fractional NGS count over selection days 2 and 3 (reads of this peptide / all reads for the bait, averaged over ….

For the variant chain 1 AEQWATEFIQQQGTSD [chain 1 A6T], the screen value was 0.0091 average fractional NGS count over selection days 2 and 3 (reads of this peptide / all reads for the bait, averaged over ….

chain 1 AEQWAIEFIQQQGTSD [chain 1 A6I]: the screen value was 0.00623 average fractional NGS count over selection days 2 and 3 (reads of this peptide / all reads for the bait, averaged over ….

With chain 1 AEQWASEFIQQQGTSD [chain 1 A6S], the screen value is 0.00105 average fractional NGS count over selection days 2 and 3 (reads of this peptide / all reads for the bait, averaged over ….

As for chain 1 AEQWANEFIQQQGTSD [chain 1 A6N], the screen value was 0.00234 average fractional NGS count over selection days 2 and 3 (reads of this peptide / all reads for the bait, averaged over ….

Regarding chain 1 AEQWADEFIQQQGTSD [chain 1 A6D], the screen value is 0.0111 average fractional NGS count over selection days 2 and 3 (reads of this peptide / all reads for the bait, averaged over ….

Regarding chain 1 AEQWAREFIQQQGTSD [chain 1 A6R], the screen value is 0.00273 average fractional NGS count over selection days 2 and 3 (reads of this peptide / all reads for the bait, averaged over ….

On to chain 1 AEQWAAEFIQKQGTSD [chain 1 Q11K], for which the screen value is 0.000704 average fractional NGS count over selection days 2 and 3 (reads of this peptide / all reads for the bait, averaged over ….

Regarding chain 1 AEQWAAEFIQLQGTSD [chain 1 Q11L], the screen value was 0.0026 average fractional NGS count over selection days 2 and 3 (reads of this peptide / all reads for the bait, averaged over ….

With chain 1 AEQWAAEFIQWQGTSD [chain 1 Q11W], the screen value was 0.000954 average fractional NGS count over selection days 2 and 3 (reads of this peptide / all reads for the bait, averaged over ….

Regarding chain 1 AEQWAAEFIQHQGTSD [chain 1 Q11H], the screen value was 0.00664 average fractional NGS count over selection days 2 and 3 (reads of this peptide / all reads for the bait, averaged over ….

Consider chain 1 AEQWAAEFIQIQGTSD [chain 1 Q11I], for which the screen value was 0.00199 average fractional NGS count over selection days 2 and 3 (reads of this peptide / all reads for the bait, averaged over ….

Consider chain 1 AEQWAAEFIQGQGTSD [chain 1 Q11G], for which the screen value was 0.00455 average fractional NGS count over selection days 2 and 3 (reads of this peptide / all reads for the bait, averaged over ….

Regarding chain 1 AEQWAAEFIQVQGTSD [chain 1 Q11V], the screen value is 0.0012 average fractional NGS count over selection days 2 and 3 (reads of this peptide / all reads for the bait, averaged over ….

As for chain 1 AEQWAAEFLQQQGTSD [chain 1 I9L], the screen value is 0.000942 average fractional NGS count over selection days 2 and 3 (reads of this peptide / all reads for the bait, averaged over ….

Take chain 1 AEQWAAEFKQQQGTSD [chain 1 I9K]: the screen value was 0.000873 average fractional NGS count over selection days 2 and 3 (reads of this peptide / all reads for the bait, averaged over ….

Take chain 1 AEQWAAEFQQQQGTSD [chain 1 I9Q]: the screen value is 0.00295 average fractional NGS count over selection days 2 and 3 (reads of this peptide / all reads for the bait, averaged over ….

For chain 1 AEQWAAEFYQQQGTSD [chain 1 I9Y], the screen value was 0.0023 average fractional NGS count over selection days 2 and 3 (reads of this peptide / all reads for the bait, averaged over ….

Take chain 1 AEQWAAEFRQQQGTSD [chain 1 I9R]: the screen value was 0.00363 average fractional NGS count over selection days 2 and 3 (reads of this peptide / all reads for the bait, averaged over ….

On to chain 1 AEQWAAEFGQQQGTSD [chain 1 I9G], for which the screen value is 0.000546 average fractional NGS count over selection days 2 and 3 (reads of this peptide / all reads for the bait, averaged over ….

As to chain 1 AEQWAAEFDQQQGTSD [chain 1 I9D], the screen value was 0.000867 average fractional NGS count over selection days 2 and 3 (reads of this peptide / all reads for the bait, averaged over ….

Values taken from publication PMC12102759 (2025).
